Data reported in publication PMC10500007.

Experiments:
Experiment in all cases: BLI; Octet RED96; His-tagged or Avi-tagged minibinder immobilised on Ni-NTA or streptavidin tips, dipped into titrations of integrin; association 900 s, dissociation 1200 s
[1] = molecular target: av6_3 E13TM15RA39K
[2] = molecular target: av6_3 M15R
[3] = molecular target: av6_3 M15RG64R
[4] = molecular target: av6_3 A39K
[5] = molecular target: av6_3 E13TG64R
[6] = molecular target: av6_3 G64R
[7] = molecular target: av6_3 E13TM15RA39KG64R
Chain of av6_3 E13TM15RA39KG64R (main, as listed by the source): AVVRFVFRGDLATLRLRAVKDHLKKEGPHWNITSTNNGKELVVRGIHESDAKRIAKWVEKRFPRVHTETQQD

Chain of av6_3 E13TG64R (main, as listed by the source): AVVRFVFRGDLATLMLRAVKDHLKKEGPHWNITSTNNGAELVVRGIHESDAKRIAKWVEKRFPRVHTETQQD
Chain of av6_3 M15RG64R (main, as listed by the source): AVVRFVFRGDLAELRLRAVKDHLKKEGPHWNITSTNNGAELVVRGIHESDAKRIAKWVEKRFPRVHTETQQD
Chain of av6_3 A39K (main, as listed by the source A39K): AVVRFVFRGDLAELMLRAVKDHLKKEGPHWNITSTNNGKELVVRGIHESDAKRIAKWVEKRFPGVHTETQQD
Chain of av6_3 E13TM15RA39K (main, as listed by the source): as the sequence (main, as listed by the source A39K) above, with E13T, M15R counted along it
Chain of av6_3 G64R (main, as listed by the source G64R): as the sequence (main, as listed by the source A39K) above, with K39A, G64R counted along it
Chain of av6_3 M15R (main, as listed by the source M15R): as the sequence (main, as listed by the source A39K) above, with M15R, K39A counted along it

Kd [1]: 1.08 nM
koff [1]: 9.1e-05 s⁻¹
kon [1]: 84300 M⁻¹ s⁻¹
Kd [2]: 0.38 nM
koff [2]: 6.65e-05 s⁻¹
kon [2]: 175000 M⁻¹ s⁻¹
Kd [3]: 0.74 nM
koff [3]: 7.71e-05 s⁻¹
kon [3]: 104000 M⁻¹ s⁻¹
Kd [4]: 0.64 nM
koff [4]: 8.16e-05 s⁻¹
kon [4]: 127000 M⁻¹ s⁻¹
Kd [5]: 0.79 nM
koff [5]: 8.87e-05 s⁻¹
kon [5]: 112000 M⁻¹ s⁻¹
Kd [6]: 0.95 nM
koff [6]: 0.000134 s⁻¹
kon [6]: 141000 M⁻¹ s⁻¹
Kd [7]: 0.79 nM
koff [7]: 8.31e-05 s⁻¹
kon [7]: 104000 M⁻¹ s⁻¹
Substance: human integrin αvβ6 (soluble, BLI analyte) (from UniProt P06756 31-1048; P18564 22-709) (receptor)
